Measurements reported in the nanobody polyreactivity screen of Harvey et al. (2022).

Test: yeast display, Sf9 membrane polyspecificity reagent, FACS + sequencing; frameworks hold sequencing errors
How it was run: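 Synthetic nanobody libraries on Saccharomyces cerevisiae BJ5465 were galactose-induced for 36–48 hours, stained 1 hour at 4 °C with 10% biotinylated, detergent-solubilized Sf9 membrane reagent and enriched on streptavidin microbeads. FACS then separated cells into low and high (top ~1%) gates by anti-HA (expression) and streptavidin (reagent binding) fluorescence. Genes were colony-PCR amplified, MiSeq 2 × 250 sequenced and CDR-length filtered. A clone's polyreactivity label is that of its gate of origin.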

QVQLVESGGGLVQAGGSLRLSCAASGSTFLYNTMGWYRQSPGKERELVAAITWSGGNTYYADSVKGRFTISRDNAKNTVYLQMNSLKPEDTAVYYCNAVWYPPKRKGFDYWGQGTQVTVSS
polyreactivity (PSR sort gate): low polyreactivity

QVQLVESGGGLVQAGGSLRLSCAASGFTFVSNALGWYRQAPGKETELVADITSDGSTNYADSVKGRFSISRDNAKNTVYLQMNSLKPEDTAVYYCATDQRSHTWVNQFDYWGLGTQVTVSS
polyreactivity (PSR sort gate): low polyreactivity

QFQLVESGRGLVQAGGSLRLSCAASGNTFGPYAMGWYRQAPGKERELVAAISSGGSTNYADSVKGRFTISRDNAKNTVYLQMNSLKPEDTAVYYCAAPYRSYVRYKYDYWGQGTLVTVSS
polyreactivity (PSR sort gate): low polyreactivity

QVQLGDSGGGLVQAGGSLRLSCAASGSIFSKYAMGWSRKAPGKERELVATISSSVGSTYYADSVKGRFTISRDNAKNSVYLQMNSLKPEDTAVYYCAARPDYEYGTHYRGGYWGQGTQVTVSS
polyreactivity (PSR sort gate): low polyreactivity

QVHLVESGGGLVQAGGSLRLSCASSGRIFEAYAMGWYRQAPGKERELVAAISGSGGSTYYADSVKGRFTISRDNAKNTVYLQMNSLKPEDTAVYYCAARYFVGKGLGYWGQGTQVTVSS
polyreactivity (PSR sort gate): high polyreactivity

QVQLVESGGGLVQAGGSLRLSCAASGSTLDLYAMGWYRQAPGKEREFVASISWSGGSTYYADSVKGRFTISRDNAKNTVYLQMNRLKPEDTAVYYCAADLVIRGSLYVSSWYDYWGQGSQVTVSS
polyreactivity (PSR sort gate): low polyreactivity

QVQLVESGGGLVQAGGSLRLSCAASGSTIGSYAMGWYRQAPGKERELVAVITGGGDTNYADSVKGRFTISRDNAKNTVYLQMNSLKPEDTAVYYCAAEGSFYRYHVGSDYWGQGTQLTVSS
polyreactivity (PSR sort gate): low polyreactivity

QVQLVESGGGLVQAGGSLRLSCAASGRIFSHNAMGWYRQAPGKERELVAAITGSGGTTYYADSVKGRFKISRDNAKNTVYLQMNSLKPEDTAVYYCAADWQQLSYVWRSQRRYNYWGQGTQVTVSS
polyreactivity (PSR sort gate): low polyreactivity

QVQLVESGGGLVQAGGSLRLSCAASGSIFRANVMGWYRQAPGKERELVASINSDDNTYYADSVKGRFTISRDNAKNTVYLQMKRLKPEDSAVYYCYSEWGLFYDWTVLHMYLDGYYYWGQGTEVTVSS
polyreactivity (PSR sort gate): low polyreactivity

QVQLVESGGGLVQAGGSLRLSCAASGLTIWRHAMGWYRQAPGKEREFVATISQNGGRTYYADSVKGRFTISRDNAKNTVYLQMNSLKPEDTAVYYCAADDWRWRYDYWGQGTQVTVSS
polyreactivity (PSR sort gate): high polyreactivity

QVQLVESAGGLVQAGGSLRLSCAASGFSFYYNTMGWYRQAPGTEWELVASITWSGDTTYYADSVKGRFTISRDNAKNTVYLQMNSLKPEDTAVYYCAAVPYYPYRRYDYWGQGTQVTVAS
polyreactivity (PSR sort gate): low polyreactivity

QVQLVESGGGLVQAGGSLRLSCAASGITFGANTMGWYRQAPGKERELVAAITISGGITHYADSVKGRFTISRDNAKNTVYLQMNRLKPEDTAVYYCAAGAYWRLYPYRQRNGGRMYYWGQGTQVTVSS
polyreactivity (PSR sort gate): low polyreactivity

QVQLVESGGGLVQAGGSLRLSCAASGPILGQYAMGGYRQAPGKERELVAAITYSGGRTYYADSVKGRFTISRDIAKNTVYLQMNSLKPEDTAVYYCAARGRASVERRGGYYYWGQGTQVTVSS
polyreactivity (PSR sort gate): high polyreactivity

QVQLGESGGCLVQAGGSLRLSCAASGSPFYTYAMGWYRQAPGKERELVAASSFGGGSTYADSVKGRFTISRDNAKNTLYLQMNSLKPDDTAGYYCNTDLYLYGWYPREVQQYAGGDYWGQGTQVTVSS
polyreactivity (PSR sort gate): low polyreactivity

QVQLVESGGGLVQAGGSLRLSCAASGRISGVNAMGWSRQAPGKERELVATISGSGGRTYYADSVKGRFTISRDNAKNTVYLQMNSLNPEDTGGYYCNSMVERGGYFSRRFDFWGQGSQVTVSS
polyreactivity (PSR sort gate): low polyreactivity

QVHLVESGGGLVQAGASLRLSCAASGRIFYKYAMGWYRQAPGKERELVAAISYRGGSTYYADSVKGRFTISRDNAKNSVYLQMKSLKPEDNAVYYCAADRWYYSVSTKSDSWGQGTQVTVSS
polyreactivity (PSR sort gate): high polyreactivity

QVQLVESGGGLVQAGGSLRLSSAASGITFATYAMGWYRQAPGKERELVAAISSSTGSTYYADSVKGRFTISRDNAKNTVYLQMNSLKPEDTAVYYCAAVRTQQYDYWGQGTQVTVSS
polyreactivity (PSR sort gate): low polyreactivity

QVQLVESGGGLVQAGGSLRLSCAASGRIFKYYAMGWYRQPPGKERELVAAISRSSGRTYYADSVKGRCTISRDNAKNTVYFQMIRLKPEDTAVYYCNALPSTVYLTYDYWGLGTQVTVSS
polyreactivity (PSR sort gate): high polyreactivity

QVQLVESGGGLVQAGGSLRLSCPASGSILYSYAMGWYRQAHGKERELVAAITGDGASTNYADSVKGRFTISRDNAKNTVYFQMNSLKPEDTAVYYCNAGRESDDVYEGSQRIGQFDYWGQGTLVTVSS
polyreactivity (PSR sort gate): low polyreactivity

QVQLVESGGGLVQAGGSLRLSCAASGRTFGLYAMGWYRQAPGKERELVAAISYSGGRTYYADSVKGRFTISRDNAKKTVYLQRNSLKPEDTAVYYCNKAWFPYYYYRFDYWGQGTQVTVSS
polyreactivity (PSR sort gate): high polyreactivity

QVQLVESGGGLFQEGGSLRLSCAASGSIFEPYVMGWYRQAPGKESELVAAIRQTGGSTYYADSVKGRFTISRDNAKNTVYLQMNSLKPEDTAVYYCNAEQNPSGLYDYRGVEGEMGYWGQGTQVTVSS
polyreactivity (PSR sort gate): low polyreactivity

QVQLVESGGGLVQAGGSLRLSCAASGRTFCGYTMGWYRQAPGKERELVAAITKRGGSTYYADSVKGRFTISRDNAKNTVYLQMNSLKPEDTAVYYCAKTKTAGTIKYDYWGQGTQVTVSS
polyreactivity (PSR sort gate): high polyreactivity

QVQLVESGGGLVQAGGSLRLSCAASGSTFYWYAKGWYRQAPGKERELVAAITSTGGSTYADSVKGRFTISRDNAKNTVYLQMNSLKPEDTAVYYCNVDTSSPSRRDYDYWGQGTQVTVSS
polyreactivity (PSR sort gate): low polyreactivity

QVQLVESGGGLVQAGGSLRLSCPASGRIIAWYAMGWYRQAPGKERELVAVITSSGGSTYYADSVKGRFTISRDNAKNTVYFMMNRLKPEDTAVYYCARKVVSPAWSHDFYYWGLGTQVTVSS
polyreactivity (PSR sort gate): low polyreactivity

QVQLVESGGGLVQARGSLRLSCAASGSTFGGYAMGWYRKAPGKERELVASISAIGGSTYYADSVKGRFTISRDNAKNTFYLQMNSMKPEDTAVYYCAAQRGGGPNDYWGQGTQVTVSS
polyreactivity (PSR sort gate): high polyreactivity

QVHLVESGGGLVQAGGSLRLSCAASGRNFLYYAMGWYRQAPGKERELVAASTSGDSTYYADSVKGRFTISRDNAKNTVYLQRNSLKPEDTAVYYCNAYQWGGRYWLVTYDYWGQGTLVTVSS
polyreactivity (PSR sort gate): low polyreactivity

QVQLVESGGGLVQAGGSHRLSCAASGRTFYFYTMGWYRPAPGKESELVATIRWSAGSTYYADSVKGRFTISRDNAKNTVYLQMNSLKPEDTAVYYCNADPYVYSSWEYGYWGLGTQVTVSS
polyreactivity (PSR sort gate): high polyreactivity

QVQLEESGGGLVQAGGSLRLSCAASGFIYVKYAMGWYRQAPGKERELVAAITNGGSTYYADSVKGRFTISRDNAKYTVYLQMNSLKPEDTAVYYCAAQYHDWWRRLLYRSFRPFDYWGQGTQVTVSS
polyreactivity (PSR sort gate): low polyreactivity

QVQLVESGGGLVQAGGILRLSCAASGRILDYYAMGWYRQAPGKERELVAAISRSGSDTYYADSVKGRFTISRDNAKNTVYLQMNSLKPEETAVYYCAARWSYRSLARYNYWGQGTQVTVSS
polyreactivity (PSR sort gate): low polyreactivity

QVQLVESGGGLVQAGGSLRLSCAASGFIFKVYAMGWYRQAPGKERELVDAISRSGGSTYYADSVKGRFTISRDHAKNTVYLQMKSLKPEDTAVYYCAADYDVTGDSDYWGQGTQVTVSS
polyreactivity (PSR sort gate): low polyreactivity

QVQLVESGGGVVQAGGRLRLSCAASGRILPFYAMGWYRQETGKERELVPGITTGTSTTYADSVNGRFTISRDNAKNTVYFQMHSLKPEDTAVYYCNTLVVPYTDFNTSYNVDYWGQGTQVTVSS
polyreactivity (PSR sort gate): low polyreactivity
